Tested on: immune cells
Assay: Inducing activity for interferon-γ in immune cells
Type: cell-based
Details: IL-12 (positive control) with 40 ng/mL
Protocol: The herbal extract (prepared by Example 1) was added in T lymphocytes and natural killer cells (NK92) separated from peripheral blood. After 24 hours, the upper-layered solution was collected and the quantity of interferon thereof was measured by ELISA. […] The dosage effect appears in both the T lymphocytes and natural killer cells (NK92). The quantity of interferon-α induced by PC-IL-12 (positive control) and the herbal extract was measured in the same manner. […] Additionally, the quantity of interferon-α produced by inducing T lymphocytes by the herbal extract with 250-1,000 μg/mL was obvious, as shown in FIGS. 2B and 2C.
The inducing activity for interferon-γ of the herbal extract (prepared by Example 3) was tested.

B1: IL-12: IL-12 (positive control) with 40 ng/mL (protein, UniProt P29459 23-219; P29460 23-328, looked up)
Interleukin-12 subunit alpha: RNLPVATPDPGMFPCLHHSQNLLRAVSNMLQKARQTLEFYPCTSEEIDHEDITKDKTSTVEACLPLELTKNESCLNSRETSFITNGSCLASRKTSFMMALCLSSIYEDLKMYQVEFKTMNAKLLMDPKRQIFLDQNMLAVIDELMQALNFNSETVPQKSSLEEPDFYKTKIKLCILLHAFRIRAVTIDRVMSYLNAS
Interleukin-12 subunit beta: IWELKKDVYVVELDWYPDAPGEMVVLTCDTPEEDGITWTLDQSSEVLGSGKTLTIQVKEFGDAGQYTCHKGGEVLSHSLLLLHKKEDGIWSTDILKDQKEPKNKTFLRCEAKNYSGRFTCWWLTTISTDLTFSVKSSRGSSDPQGVTCGAATLSAERVRGDNKEYEYSVECQEDSACPAAEESLPIEVMVDAVHKLKYENYTSSFFIRDIIKPDPPKNLQLKPLKNSRQVEVSWEYPDTWSTPHSYFSLTFCVQVQGKSKREKKDRVFTDKTSATVICRKNASISVRAQDRYYSSSWSEWASVPCS
interferon-γ produced: 50 ± 2.04 pg/mL

From patent US20090280200A1, “HERBAL EXTRACTS WHICH INDUCE IMMUNE CELLS TO PRODUCE INTERFERON AND ACTIVATE TOLL-LIKE RECEPTORS” (INDUSTRIAL TECHNOLOGY RESEARCH INSTITUTE, priority 2008, published 2009)
